The values that follow come from patent publication US20180346569A1 (LYVGEN BIOPHARMA, published 2018).

The target in experiment [1] is T1, rhesus monkey PD-1-His (Sino Biological Inc. Cat#90305-KO8H-100) (rhesus monkey, UniProt B0LAJ2 25-170).
T1 construct: Bought protein; also called Rehsus monkey PD-1
The experiment can be described thus: ELISA, antibody coated at 1 ug/ml, PD-1-His titrated, detected with anti-His-HRP. The method, then:
(§1) The PD-1 antibody sample was diluted in PBS to 1 ug/ml and was coated in an ELISA plate (Costar, Cat#3590, high binding) 100 ul/well, 4° C. overnight. The plate was decanted and blocking solution (eBioscience, ELISA/ELISPOT Diluent, Cat#00-4202-55) was added 200 ul/well. After 1 hour incubation at room temperature, the plate was washed with PBST three times. […] The plate was incubated 1 hour at room temperature and then washed four times with PBST. Anti-His-HRP (Genscript Cat#A00612) at 1:2000 dilution was added to the plate 100 ul/well. The plate was incubated 1 hour at room temperature followed by washing with PBST four times. The TMB substrate solution was added 100 ul/well. Let the color develop for 15 minutes and add 50 ul/well 1M H2SO4 to terminate the reaction. Absorbance at 450 nm was determined in FlexStation 3 ELISA reader.
Background: An ELISA detects its analyte on a solid surface through an enzyme-linked reagent.

In experiment [2] the target is T2, Human PD-1 (captured on an anti-His IgG Biacore chip) (human, UniProt Q15116 25-167).
T2 construct: It may be the same Sino Biological PD-1-His protein as m3; also called PD-1 antigen; not shown: His tag implied by capture on anti-His IgG
The experiment can be described thus: SPR (Biacore), human PD-1 captured on anti-His IgG chip, SSI-361 injected at 3.125-50 nM, 1:1 model. As to the method: Flow cells of a Series S CMS sensor chip (GE Healthcare Life Sciences) were activated with freshly mixed 50 mmol/L NHS and 200 mmol/L EDC for 360 seconds (10 μL/min). Then, anti-His IgGs, in 10 mmol/L NaAC (pH 5.0) was injected onto the activated flow cell (10 μL/min) for 300 seconds (10 μL/min) with HBS-EP+(10 mM HEPES, 150 mM NaCl, 3 mM EDTA and 0.05% P20, pH 7.4) as the running buffer. The remaining active coupling sites were blocked with a 420 second injection of 1 mol/L ethanolamine (10 μL/min). This procedure was repeated for 2 times to immobilized protein on 2 flow cells individually. Low flow rate overnight was maintained for the equilibrium of the immobilized proteins. Human PD-1 was captured on a flow cell 2 (10 μL/min). […] Flow cell 1 without captured antigen was used as reference flow cell. To remove the tested antibody and antigen from the surface, 10 mM glycine-HCl pH 1.5 was injected for 60s (10 μL/min, flow cell 1-2). The above procedures were repeated for each concentration of serially diluted tested antibody. The KD value (Table 1) was evaluated using Biacore X100 evaluation software 2.0 with 1:1 interaction binding model. Flow cell 1 was used as reference flow cell for data subtraction.

Experiment [3] has as its target T3, Cyno PD-1-Fc tag (Sino Biological Inc. Cat#90311-CO2H) (cynomolgus monkey, UniProt B0LAJ3 25-170).
T3 construct: Bought Fc fusion; also called PD-1 of cynomolgus monkey; Cynomolgus monkey PD-1
Kind of experiment: ELISA, Cyno PD-1-Fc coated at 2 ug/ml, antibody titrated, detected with anti-human Ig kappa-HRP. The method, then: To determine binding to PD-1 of cynomolgus monkey, Cyno PD-1—Fc tag (Sino Biological Inc. Cat#90311-CO2H) was diluted in PBS to 2 ug/ml, and 100 ul/well was used to coat an ELISA plate (Costar, Cat#3590, high binding), 4° C. overnight. The plate was decanted and blocking solution (eBioscience, ELISA/ELISPOT Diluent, Cat#00-4202-55) was added, 200 ul/well. After 1 hour incubation at room temperature, the plate was washed with PBST three times. The testing PD-1 antibody was diluted in blocking buffer to 0, 0.001, 0.01, 0.1, 1.10 ug/ml and added to the plate, 100 ul/well. The plate was incubated 1 hour at room temperature and then washed four times with PBST. Anti-Hu IgG-HRP (goat-anti-human Ig kappa-HRP, Millipore, Cat# AP502P) at 1:4000 dilution was added to the plate, 100 ul/well. The plate was incubated 1 hour at room temperature followed by washing with PBST four times. The TMB substrate solution was added 100 ul/well. The color developed for 15 minutes and 50 ul/well of 1M H2SO4 was added to terminate the reaction. Absorbance at 450 nm was determined in FlexStation 3 ELISA reader.

In experiment [4] the target is T4, Human PD-1-His tag protein (Sino Biological Inc. Cat#10377-H08H-100) (human, UniProt Q15116 25-167).
T4 construct: Bought protein; not shown: His tag
Kind of experiment: ELISA, antibody coated at 1 ug/ml, PD-1-His titrated, detected with anti-His-HRP; antibody coated on the plate, human PD-1-His titrated. As to the method:
as §1

The target in experiment [5] is T4, Human PD-1-His tag protein (Sino …). Kind of experiment: ELISA, antibody coated at 1 ug/ml, human PD-1-His titrated (the concentration axis is that of PD-1-His), detected with anti-His-HRP. The method, then:
as §1

In experiment [6] the target is T1, rhesus monkey PD-1-His (Sino Biological …). The experiment can be described thus: ELISA, antibody coated at 1 ug/ml, rhesus monkey PD-1-His titrated (the concentration axis is that of PD-1-His), detected with anti-His-HRP. As to the method:
as §1

T2 sequence (Q15116 25-167): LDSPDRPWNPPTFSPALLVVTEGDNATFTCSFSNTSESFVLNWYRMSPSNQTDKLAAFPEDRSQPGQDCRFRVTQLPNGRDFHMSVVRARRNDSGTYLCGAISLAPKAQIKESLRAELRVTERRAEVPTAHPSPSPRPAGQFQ
T1 sequence (B0LAJ2 entry or part of it limits assumed): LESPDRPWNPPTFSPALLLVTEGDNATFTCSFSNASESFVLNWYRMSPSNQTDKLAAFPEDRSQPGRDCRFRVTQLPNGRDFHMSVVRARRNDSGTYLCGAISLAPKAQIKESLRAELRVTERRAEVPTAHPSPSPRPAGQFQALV
T3 sequence (B0LAJ3 entry or part of it limits assumed): as the sequence (B0LAJ2 entry or part of it limits assumed) above, with P10A, R67Q, Q75R counted along it
T4 sequence (Q15116 25-167 limits assumed): as the sequence (Q15116 25-167) above

B1: SSI-361 (humanized SHB-617 in human IgG4 S228P/kappa) (antibody, V domains shown)
VH: QVTLKESGPALVKPTQTLTLTCTFSGFSLSTSGTCVSWIRQPPGKALEWLATICWEDSKGYNPSLKSRLTISKDTSKNQAVLTMTNMDPVDTATYYCARREDSGYFWFPYWGQGTLVTVSS
VL: NIQMTQSPSSLSASVGDRVTITCKAGQNVNNYLAWYQQKPGKAPKVLIFNANSLQTGVPSRFSGSGSGTDFTLTISSLQPEDFATYYCQQYNSWTTFGGGTKVEIKR
notes: Full human IgG4 (hinge S228P, EU numbering)/kappa, expressed in HEK293 or CHO cells; also called PD-1 Ab01
For B1, the half-maximal effective concentration (EC50) (usually the concentration that produces a half-maximal response) came out at 390 pM in experiment [1], 80 pM in experiment [3] and 330 pM in experiment [4]. Binding in experiment [2] was put at a Kd of 5070 pM. For the same molecule, in experiment [2], the koff (in general, a measure of how fast the partners let go of each other) was determined as 0.00117 s⁻¹. Further, the kon (as a rule, the rate constant with which the complex forms) in experiment [2] stood at 230000 M⁻¹ s⁻¹. In addition, the figures for the “EC50 (read off the curve)” value in experiment [3], in experiment [5] and in experiment [6] were about 0.01 µg/mL, about 0.03 µg/mL and about 0.05 µg/mL, respectively.
